Data published in paper PMC9671094 (Immunity, 2022).

B1: PG9.iGL (antibody, V domains shown)
VH: QVQLVESGGGVVQPGRSLRLSCAASGFTFSSYGMHWVRQAPGKGLEWVAVISYDGSNKYYADSVKGRFTISRDNSKNTLYLQMNSLRAEDTAVYYCAREAGGPDYRNGYNYYDFWSGYYYYYYMDVWGKGTTVTVSS
VL: QSALTQPASVSGSPGQSITISCTGTSSDVGGYNYVSWYQQHPGKAPKLMIYEVSNRPSGVSNRFSGSKSGNTASLTISGLQAEDEADYYCSSYTSSSTVVFGGGTKLTVL
B2: PCT64.13C (antibody, V domains shown)
VH: EVQLVESGGGLVKPGGSLRLSCAASGFTFTNAWLDWVRQAPGKGLEWVGRIKSKTDGGTTDHAAPVKGRFTISRDDSKNTVYLQMNSLKIEDTAVYYCTTGVETYDFWSGYDDHYYDYYFKDVWGKGTTVTVSS
VL: EIVLTQSPGTLSLSPGERATLSCRASQSVSNNYLAWYQQKPGQAPRLLIYGASSRATGIPDRFSGSGSGTDFTLTISRLEPEDFAVYYCQQSARSFTFGPGTKVDIK

Target: T1, BG505 SOSIP.D664 (HIV-1 isolate BG505 (clade A), stabilised)
T1 construct: also called BG505.SOSIP.664; source: HEK 293F, co-transfected with furin, purified (HisTrap, SEC); copies: 3 + 3
Assay: SPR; IgG captured as ligand by anti-human IgG (Human Antibody Capture Kit) on a GLC chip, ProteOn XPR36; trimer as analyte; 1x HBS-EP+ pH 7.4 with 1 mg/ml BSA; 1:1 binding model; highest SOSIP concentration 5 uM or 10 uM
Conditions: both partners purified

| Binder | Kd |
| --- | --- |
| B1 | > 5 µM |
| B2 | > 5 µM |
